Measurements taken from PMC10675646 (Viruses, 2023).
Where no end group is shown, it is not given here. The star is where a group is joined. 5FAM = O=C1OC2(c3ccc(O)cc3Oc3cc(O)ccc32)c2ccc(C(=O)*)cc21; Ahx = NCCCCCC(=O)O

B1: 5-FAM-Ahx-PIQAS peptide (5-aa ORF3a peptide, residues 36-40) (peptide)
peptide: {5FAM-Ahx}-PIQAS
notes: also called 5-FAM-ORF3a peptide; fluorescently labeled PIQAS peptide
B2: TRAF2 TRAF-C domain (human TRAF2 residues 315-501), tag cleaved, for crystallization (domain or fragment, UniProt Q12933 315-501, looked up)
chain: EALSSKVQQLERSIGLKDLAMADLEQKVLEMEASTYDGVFIWKISDFARKRQEAVAGRIPAIFSPAFYTSRYGYKMCLRIYLNGDGTGRGTHLSLFFVVMKGPNDALLRWPFNQKVTLMLLDQNNREHVIDAFRPDVTSSSFQRPVNDMNIASGCPLFCPVSKMEAKNSYVRDDAIFIKAIVDLTGL

Assays:
[1] = target: T1, 6xHis-SUMO-TRAF2 (residues 315-501) (human, UniProt Q12933 315-501); experiment: fluorescence polarisation; conditions: both partners purified
T1 construct: also called SUMO-TRAF-C of TRAF2; TRAF2 TRAF-C domain
T1 sequence (looked up): B2 chain

[2] = target: T2, 6xHis-SUMO-TRAF3 (residues 341-568) (human, UniProt Q13114 341-568); experiment: fluorescence polarisation; conditions: both partners purified
T2 construct: also called SUMO-TRAF-C of TRAF3; TRAF3 TRAF-C domain
T2 sequence (looked up): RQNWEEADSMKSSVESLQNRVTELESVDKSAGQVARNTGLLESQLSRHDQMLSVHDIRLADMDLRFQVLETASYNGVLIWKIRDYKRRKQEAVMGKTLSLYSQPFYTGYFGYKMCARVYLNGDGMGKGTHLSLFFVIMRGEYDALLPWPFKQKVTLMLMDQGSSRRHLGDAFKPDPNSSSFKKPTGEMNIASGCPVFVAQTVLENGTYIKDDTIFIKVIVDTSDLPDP

[3] = target: 16-aa ORF3a peptide (SARS-CoV-2 ORF3a residues 30-45) (SARS-CoV-2); experiment: crystal structure; conditions: both partners purified
crystal structure = target: the molecule itself; experiment: crystal structure

Binder | Kd [1] [µM] | Kd [2] [µM] | binding result [3] | stoichiometry N (crystal structure)
B1 | 192 | 172 | – | –
B2 | – | – | binds | 3
